Here are results for 14 molecules from PMC314469, “Protein Interaction Networks by Proteome Peptide Scanning” (PLoS Biology, 2004).

Holding throughout (experiment): SPOT array
Assay [1] concerns the target T1, Rvs167 SH3 (RV167_YEAST), P39743.
T1 chain: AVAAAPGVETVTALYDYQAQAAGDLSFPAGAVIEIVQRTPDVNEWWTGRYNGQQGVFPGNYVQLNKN

The target of assay [2] is Sho1 SH3 (SHO1_YEAST), P40073.
Assay [3] deals with T2, Boi2 SH3 (BOI2_YEAST), P39969.
T2 chain: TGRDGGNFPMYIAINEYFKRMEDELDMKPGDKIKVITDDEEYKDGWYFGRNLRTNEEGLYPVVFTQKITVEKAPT

The target of assay [4] is T3, Boi1 SH3 (BOI1_YEAST), P38041.
T3 chain: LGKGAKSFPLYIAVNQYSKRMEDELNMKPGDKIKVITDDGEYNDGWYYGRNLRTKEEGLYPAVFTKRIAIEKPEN

The target of assay [5] is T4, Myo5 SH3 (MYO5_YEAST), Q04439.
T4 chain: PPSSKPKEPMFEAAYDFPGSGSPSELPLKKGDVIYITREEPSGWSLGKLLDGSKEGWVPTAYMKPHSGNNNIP

Assay [6] concerns the target T5, Yfr024 SH3 (LSB3_YEAST), P43603.
T5 chain: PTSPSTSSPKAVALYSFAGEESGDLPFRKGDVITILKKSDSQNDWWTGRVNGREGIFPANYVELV

Assay [7] has as its target T6, Yhr016c SH3 (YSC84_YEAST), P32793.
T6 chain: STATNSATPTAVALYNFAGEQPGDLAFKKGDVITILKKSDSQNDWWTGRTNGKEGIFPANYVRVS

Sequence of Sho1 SH3 (SHO1_YEAST), P40073 (P40073 295-366): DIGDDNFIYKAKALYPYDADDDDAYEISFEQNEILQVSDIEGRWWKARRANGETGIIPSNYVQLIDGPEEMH

With ASFRKTKPPPPLDF [YAL017W 81-94], the normalised SPOT signal, Boehringer light units (BLU); mean over the file's lines of this peptide in assay [1] stood at 48.5; in assay [2] it was 19.5; in assay [3] it was 21.6; in assay [4], 1950; in assay [5], 169; in assay [6], 816. In assay [7], this molecule registered a normalised SPOT signal, Boehringer light units (BLU); mean over the file's lines of this peptide of 304.
With ATKRKTIPVYPPVQ [YCR046C 20-33], the normalised SPOT signal, Boehringer light units (BLU); mean over the file's lines of this peptide stood at 49.7 in assay [1]; 30.2 in assay [2]; 59.9 in assay [3]; 263 in assay [4]; 274 in assay [5]; 204 in assay [6]. This molecule also gave a normalised SPOT signal, Boehringer light units (BLU); mean over the file's lines of this peptide in assay [7] of 28.1.
Consider AVLIRADPLNPKVV [YCR028C 355-368], for which the normalised SPOT signal, Boehringer light units (BLU); mean over the file's lines of this peptide was 12.9 in assay [1]; 13.9 in assay [2]; -0 in assay [3]; 15.3 in assay [4]; 102 in assay [5]; 34.4 in assay [6]. Further, in assay [7], the normalised SPOT signal, Boehringer light units (BLU); mean over the file's lines of this peptide turned out to be 9.5.
For the molecule APVVKSEPSLPRMR [YJL083W 57-70], the normalised SPOT signal, Boehringer light units (BLU); mean over the file's lines of this peptide was determined as 70.8 in assay [1]; 49.7 in assay [2]; 17.7 in assay [3]; 1950 in assay [4]; 241 in assay [5]; 512 in assay [6]. In assay [7], this molecule displayed a normalised SPOT signal, Boehringer light units (BLU); mean over the file's lines of this peptide of 63.5.
As for AVGGKWEPGNPIAI [YHR113W 80-93], the normalised SPOT signal, Boehringer light units (BLU); mean over the file's lines of this peptide in assay [1] is 39.6; in assay [2], 0; in assay [3], 14.1; in assay [4] it was 41.1; in assay [5], 78.4; in assay [6], 17.2. For the same molecule, the normalised SPOT signal, Boehringer light units (BLU); mean over the file's lines of this peptide in assay [7] stood at 19.6.
For ATVVKNSPGDPELF [YNL187W 329-342], the normalised SPOT signal, Boehringer light units (BLU); mean over the file's lines of this peptide is 28.9 in assay [1]; 51.1 in assay [2]; 17 in assay [3]; 644 in assay [4]; 76.2 in assay [5]; 27.6 in assay [6]. In assay [7], this molecule gave a normalised SPOT signal, Boehringer light units (BLU); mean over the file's lines of this peptide of 13.3.
ALWAKFFPEKPLNI [YGR024C 111-124]: the normalised SPOT signal, Boehringer light units (BLU); mean over the file's lines of this peptide in assay [1] came out at 50.7; in assay [2], 115; in assay [3], 18.8; in assay [4], 103; in assay [5], 154; in assay [6], 405. In assay [7], this molecule yielded a normalised SPOT signal, Boehringer light units (BLU); mean over the file's lines of this peptide of 75.9.
Regarding ATGKRKLPGWPSAD [YIL165C 34-47], the normalised SPOT signal, Boehringer light units (BLU); mean over the file's lines of this peptide came out at 80.9 in assay [1]; 52.8 in assay [2]; 4 in assay [3]; 127 in assay [4]; 136 in assay [5]; 3620 in assay [6]. This molecule also displayed a normalised SPOT signal, Boehringer light units (BLU); mean over the file's lines of this peptide in assay [7] of 92.2.
As for ASKHKMFPFNPAKI [YLR115W 531-544], the normalised SPOT signal, Boehringer light units (BLU); mean over the file's lines of this peptide in assay [1] was 80.6; in assay [2], 65.5; in assay [3] it was 1.5; in assay [4] it was 349; in assay [5] it was 953; in assay [6], 214. The molecule further yielded a normalised SPOT signal, Boehringer light units (BLU); mean over the file's lines of this peptide in assay [7] of 16.3.
Consider AQKLKLLPEEPFQR [YDL001W 74-87], for which the normalised SPOT signal, Boehringer light units (BLU); mean over the file's lines of this peptide was determined as 76.9 in assay [1]; 3780 in assay [2]; 16.2 in assay [3]; 713 in assay [4]; 401 in assay [5]; 29.1 in assay [6]. In assay [7], this molecule displayed a normalised SPOT signal, Boehringer light units (BLU); mean over the file's lines of this peptide of 3.4.
In the case of APPPKEEPAAPTST [YGR162W 923-936], the normalised SPOT signal, Boehringer light units (BLU); mean over the file's lines of this peptide stood at 15.9 in assay [1]; 37.7 in assay [2]; 3.5 in assay [3]; 76.3 in assay [4]; 117 in assay [5]; 5.8 in assay [6]. The molecule further had a normalised SPOT signal, Boehringer light units (BLU); mean over the file's lines of this peptide in assay [7] of 0.6.
For ATEAKSLPKIPSIP [YPL176C 343-356], the normalised SPOT signal, Boehringer light units (BLU); mean over the file's lines of this peptide in assay [1] came out at 47.7; in assay [2] it was 19100; in assay [3], 58.5; in assay [4], 108; in assay [5], 137; in assay [6], 39.5. In assay [7], this molecule displayed a normalised SPOT signal, Boehringer light units (BLU); mean over the file's lines of this peptide of 67.6.
For AVQLKRQPAQPRES [YBR191W 125-138], the normalised SPOT signal, Boehringer light units (BLU); mean over the file's lines of this peptide in assay [1] was determined as 73.8; in assay [2], 65; in assay [3], 14.1; in assay [4] it was 1480; in assay [5] it was 238; in assay [6], 438. This molecule displayed a normalised SPOT signal, Boehringer light units (BLU); mean over the file's lines of this peptide in assay [7] of 41.3.
For the molecule AMESRVAPEIPGLI [YGL130W 4-17], the normalised SPOT signal, Boehringer light units (BLU); mean over the file's lines of this peptide worked out at 60.5 in assay [1]; 47.7 in assay [2]; 0 in assay [3]; 82.6 in assay [4]; 426 in assay [5]; 517 in assay [6]. In assay [7], this molecule returned a normalised SPOT signal, Boehringer light units (BLU); mean over the file's lines of this peptide of 45.4.
